Reference: PMC3660575, “The Intracellular Domain of Sortilin Interacts with Amyloid Precursor Protein and Regulates Its Lysosomal and Lipid Raft Trafficking” (PLoS ONE, 2013)

Molecular target: T1, APP770-YFP (human, UniProt P05067-1 18-770)
T1 construct: human amyloid precursor protein, the isoform named APP770; Plasmid was a gift (Prof. Goldstein, UCSD); the construct is not described further; also called APP-YFP; source: HEK293, transfected (APP770-YFP pcDNA3.1), in lysate or in living cells
Test: FRET or BRET; FRET acceptor bleaching in co-transfected HEK293 cells (YFP and CFP fusions); FRET efficiency from photobleached regions of interest; the negative control's value used as cut-off
Conditions: partners not purified

T1 sequence (P05067 18-770): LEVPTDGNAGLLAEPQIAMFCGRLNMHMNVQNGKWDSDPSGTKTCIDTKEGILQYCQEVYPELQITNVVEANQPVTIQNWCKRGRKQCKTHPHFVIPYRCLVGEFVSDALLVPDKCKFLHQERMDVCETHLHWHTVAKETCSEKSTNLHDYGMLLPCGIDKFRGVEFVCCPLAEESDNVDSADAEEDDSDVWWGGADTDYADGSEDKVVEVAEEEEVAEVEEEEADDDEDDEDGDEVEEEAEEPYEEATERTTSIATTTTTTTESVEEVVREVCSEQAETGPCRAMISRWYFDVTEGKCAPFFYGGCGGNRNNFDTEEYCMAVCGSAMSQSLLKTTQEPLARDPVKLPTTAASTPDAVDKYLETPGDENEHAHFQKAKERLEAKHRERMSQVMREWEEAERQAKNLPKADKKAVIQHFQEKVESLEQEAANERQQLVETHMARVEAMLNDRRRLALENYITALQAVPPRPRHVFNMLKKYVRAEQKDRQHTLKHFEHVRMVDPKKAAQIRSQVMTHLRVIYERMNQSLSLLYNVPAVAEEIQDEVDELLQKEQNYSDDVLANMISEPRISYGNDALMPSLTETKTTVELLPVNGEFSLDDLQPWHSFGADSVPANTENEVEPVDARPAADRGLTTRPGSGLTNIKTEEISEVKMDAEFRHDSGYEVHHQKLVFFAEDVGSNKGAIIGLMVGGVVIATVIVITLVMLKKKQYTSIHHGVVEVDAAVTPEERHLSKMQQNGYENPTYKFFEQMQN

FRET efficiency: 40%
B1: Sort 756-831-CFP (domain or fragment, human, UniProt Q99523-1 756-831, looked up)
chain: SVPIILAIVGLMLVTVVAGVLIVKKYVCGGRFLVHRYSVLQQHAEANGVDGVDALDTASHTNKSGYHDDSDEDLLE
notes: The forward primer adds a start ATG before the stretch; source: HEK293, transfected, in lysate or in living cells; not shown: CFP (vector pECFP-N1), C-terminal, kept
